{"source": "patent US20190263934A1", "about": "(published 2019)", "binders": {"B1": {"name": "mouse FcRn (receptor)", "chain": "SETRPPLMYHLTAVSNPSTGLPSFWATGWLGPQQYLTYNSLRQEADPCGAWMWENQVSWYWEKETTDLKSKEQLFLEALKTLEKILNGTYTLQGLLGCELASDNSSVPTAVFALNGEEFMKFNPRIGNWTGEWPETEIVANLWMKQPDAARKESEFLLNSCPERLLGHLERGRRNLEWKEPPSMRLKARPGNSGSSVLTCAAFSFYPPELKFRFLRNGLASGSGNCSTGPNGDGSFHAWSLLEVKRGDEHHYQCQVEHEGLAQPLTVDLDSSARSS", "b2m": "IQKTPQIQVYSRHPPENGKPNILNCYVTQFHPPHIEIQMLKNGKKIPKVEMSDMSFSKDWSFYILAHTEFTPTETDTYACRVKHASMAEPKTVYWDRDM", "modifications": "biotinylated", "notes": "only 'biotinylated ... mouse FcRn' is told; also called mFcRn"}}, "target": "T1, Ab3 WT recombinant Fc fragment (UniProt P01857-1 104-330 = IgG part, limits assumed)", "T1 construct": "domain: Fc fragment; Ab3 is an Fc fragment", "assay": "Biacore SPR, pH 6.0", "method": "With the biotin CAPture kit, the CAPture reagent was captured on the CAP chip surface to a binding RU of >2,000 RU, followed by 0.1 μg mL⁻¹ FcRn in the appropriate channels for 24 s at 30 uL min⁻¹ to a final binding RU of ˜2 RU. The running buffer for the FcRn binding kinetics experiments was PBS with 0.05% Surfactant P-20 (PBS-P+, GE Healthcare) at pH 6.0 or 7.4. A concentration series of a 4-fold serial dilution from 1000 nM antibody was performed in quadruplicate for each variant, including a 0 nM control. Kinetic measurements were obtained for association and dissociation times of 180 and 300 sec, respectively at a flow rate of 10 μL min⁻¹. The C1 and CAP sensor chips were regenerated with 10 mM sodium tetraborate, 1 M NaCl pH 8.5 (GE Healthcare) for 30 sec at 50 μL min⁻¹ or 6 M guanidine hydrochloride, 250 mM sodium hydroxide (GE Healthcare) for 120 s at 50 uL min¹, respectively, followed by an additional 60-90 sec stabilization step in PBS-P+pH 6.0. […]\nKinetic parameters for the concentration series at pH 6.0 were fit to a bivalent model using the Biacore T200 Evaluation Software due to avidity effects. […] The apparent binding affinity was calculated from the first on and off-rates from the bivalent model. The residual binding at pH 7.4 was measured using 1000 nM of each antibody in triplicate at the same time for response comparison.", "data": [{"binder": "B1", "values": [{"measurement": "Kd", "result": 61, "unit": "nM"}]}]}
